Data published in article PMC12241546, “PRELP functions via multiple interactions with intrinsically weak affinity relying on ECM anchoring and remodeling” (Scientific Reports, 2025).

B1: Recombinant extracellular domain of human p75NTR (low-affinity nerve growth factor receptor) (receptor, UniProt P08138 29-189, looked up)
chain: KEACPTGLYTHSGECCKACNLGEGVAQPCGANQTVCEPCLDSVTFSDVVSATEPCKPCTECVGLQSMSAPCVEADDAVCRCAYGYYQDETTGRCEACRVCEAGSGLVFSCQDKQNTVCEECPDGTYSDEANHVDPCLPCTVCEDTERQLRECTRWADAECE
notes: also called p75NTR ectodomain; source: Sf9 cells, purified from the culture supernatant (Ni-NTA, SEC)
B2: N-terminal-truncated PRELP ΔNT50 (domain or fragment)
chain: PDCPRECYCPPDFPSALYCDSRNLRKVPVIPPRIHYLYLQNNFITELPVESFQNATGLRWINLDNNRIRKIDQRVLEKLPGLVFLYMEKNQLEEVPSALPRNLEQLRLSQNHISRIPPGVFSKLENLLLLDLQHNRLSDGVFKPDTFHGLKNLMQLNLAHNILRKMPPRVPTAIHQLYLDSNKIETIPNGYFKSFPNLAFIRLNYNKLTDRGLPKNSFNISNLLVLHLSHNRISSVPAINNRLEHLYLNNNSIEKINGTQICPNDLVAFHDFSSDLENVPHLRYLRLDGNYLKPPIPLDLMMCFRLLQSVVI
modifications: secreted from insect cells (Mimic Sf9), possible N-glycans; C-terminal FLAG tag omitted. The start at 71 is 50 residues removed from the printed mature construct 21-382, just before the Cys-rich …
B3: Recombinant human full-length PRELP (proline/arginine-rich end leucine-rich repeat protein) (natural protein, UniProt P51888 21-382, looked up)
chain: QPTRRPRPGTGPGRRPRPRPRPTPSFPQPDEPAEPTDLPPPLPPGPPSIFPDCPRECYCPPDFPSALYCDSRNLRKVPVIPPRIHYLYLQNNFITELPVESFQNATGLRWINLDNNRIRKIDQRVLEKLPGLVFLYMEKNQLEEVPSALPRNLEQLRLSQNHISRIPPGVFSKLENLLLLDLQHNRLSDGVFKPDTFHGLKNLMQLNLAHNILRKMPPRVPTAIHQLYLDSNKIETIPNGYFKSFPNLAFIRLNYNKLTDRGLPKNSFNISNLLVLHLSHNRISSVPAINNRLEHLYLNNNSIEKINGTQICPNDLVAFHDFSSDLENVPHLRYLRLDGNYLKPPIPLDLMMCFRLLQSVVI
notes: human PRELP, amino acid residues 21-382 (Uniprot numbering); source: Mimic Sf9 cells, purified from the supernatant (DDDDK-tagged Protein Purification Gel, Benzonase, SEC); not shown: FLAG, C-terminal, kept
B4: Recombinant chimeric PRELP (human PRELP 1-268 joined to Listeria monocytogenes internalin B 189-248) (other)
chain: QPTRRPRPGTGPGRRPRPRPRPTPSFPQPDEPAEPTDLPPPLPPGPPSIFPDCPRECYCPPDFPSALYCDSRNLRKVPVIPPRIHYLYLQNNFITELPVESFQNATGLRWINLDNNRIRKIDQRVLEKLPGLVFLYMEKNQLEEVPSALPRNLEQLRLSQNHISRIPPGVFSKLENLLLLDLQHNRLSDGVFKPDTFHGLKNLMQLNLAHNILRKMPPRVPTAIHQLYLDSNKIETIPNGYFKSFPNLDTLSLEDNQISDIVPLAGLTKLQNLYLSKNHISDLRALAGLKNLDVLELFSQECLNKPIN
notes: signal peptide in the construct; human PRELP, amino acid residues 1-268 (Uniprot), N-terminal half portion with LRR1-7; also called chPRELP; source: Expi293 cells, transfected, purified from the culture supernatant (FLAG-tag purification, SEC)
B5: N-terminal-truncated PRELP ΔNT24 (domain or fragment)
chain: SFPQPDEPAEPTDLPPPLPPGPPSIFPDCPRECYCPPDFPSALYCDSRNLRKVPVIPPRIHYLYLQNNFITELPVESFQNATGLRWINLDNNRIRKIDQRVLEKLPGLVFLYMEKNQLEEVPSALPRNLEQLRLSQNHISRIPPGVFSKLENLLLLDLQHNRLSDGVFKPDTFHGLKNLMQLNLAHNILRKMPPRVPTAIHQLYLDSNKIETIPNGYFKSFPNLAFIRLNYNKLTDRGLPKNSFNISNLLVLHLSHNRISSVPAINNRLEHLYLNNNSIEKINGTQICPNDLVAFHDFSSDLENVPHLRYLRLDGNYLKPPIPLDLMMCFRLLQSVVI
modifications: secreted from insect cells (Mimic Sf9), possible N-glycans; C-terminal FLAG tag omitted. The start at 45 is 24 residues removed from the printed mature construct 21-382, which matches removal of the …

How the values were obtained:
Conditions in all cases: both partners purified
[1] = target: B3; assay: SPR; Biacore T200; PRELP proteins immobilised on CM5 by amine coupling (about 4000 RU; chPRELP about 600 RU for IGFI-R, 2000 RU for p75NTR); IGFI-R or p75NTR injected at 30 µL/min; 10 mM HEPES pH 7.5, 150 mM NaCl, 0.05% Tween-20, 15 °C; equilibrium curve fitting
[2] = target: T1, Recombinant mature TGFβ1 dimer (transforming growth factor β1) (human, UniProt P01137 279-390); assay: SPR; Biacore T200; PRELP proteins immobilised on CM5 by amine coupling (about 400 RU; chPRELP about 600 RU); TGFβ1 or TGFβRII injected at 30 µL/min; 10 mM HEPES pH 7.5, 150 mM NaCl, 50 mM arginine-HCl, 0.05% Tween-20, 15 °C; global fitting
T1 construct: mature TGFβ1 cut from the human TGFβ1 pro-protein (expressed as amino acid residues 30-390, Uniprot, with C33S in the pro-region); source: ExpiCHO cells, transfected
T1 sequence (P01137 279-390): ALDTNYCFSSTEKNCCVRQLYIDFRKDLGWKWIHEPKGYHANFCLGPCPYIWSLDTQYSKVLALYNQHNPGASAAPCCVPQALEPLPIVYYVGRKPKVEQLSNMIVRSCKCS

[3] = target: T2, Recombinant extracellular domain of human IGFI-R (insulin-like growth factor I receptor) (human, UniProt P08069 31-935); assay: SPR; Biacore T200; PRELP proteins immobilised on CM5 by amine coupling (about 4000 RU; chPRELP about 600 RU for IGFI-R, 2000 RU for p75NTR); IGFI-R or p75NTR injected at 30 µL/min; 10 mM HEPES pH 7.5, 150 mM NaCl, 0.05% Tween-20, 15 °C; equilibrium curve fitting
T2 construct: extracellular domain of human IGFI-R, amino acid residues 31-935 (Uniprot); also called IGFI-R ectodomain; source: ExpiCHO cells, purified from the culture supernatant (Ni-NTA, SEC)
T2 sequence (P08069 31-935): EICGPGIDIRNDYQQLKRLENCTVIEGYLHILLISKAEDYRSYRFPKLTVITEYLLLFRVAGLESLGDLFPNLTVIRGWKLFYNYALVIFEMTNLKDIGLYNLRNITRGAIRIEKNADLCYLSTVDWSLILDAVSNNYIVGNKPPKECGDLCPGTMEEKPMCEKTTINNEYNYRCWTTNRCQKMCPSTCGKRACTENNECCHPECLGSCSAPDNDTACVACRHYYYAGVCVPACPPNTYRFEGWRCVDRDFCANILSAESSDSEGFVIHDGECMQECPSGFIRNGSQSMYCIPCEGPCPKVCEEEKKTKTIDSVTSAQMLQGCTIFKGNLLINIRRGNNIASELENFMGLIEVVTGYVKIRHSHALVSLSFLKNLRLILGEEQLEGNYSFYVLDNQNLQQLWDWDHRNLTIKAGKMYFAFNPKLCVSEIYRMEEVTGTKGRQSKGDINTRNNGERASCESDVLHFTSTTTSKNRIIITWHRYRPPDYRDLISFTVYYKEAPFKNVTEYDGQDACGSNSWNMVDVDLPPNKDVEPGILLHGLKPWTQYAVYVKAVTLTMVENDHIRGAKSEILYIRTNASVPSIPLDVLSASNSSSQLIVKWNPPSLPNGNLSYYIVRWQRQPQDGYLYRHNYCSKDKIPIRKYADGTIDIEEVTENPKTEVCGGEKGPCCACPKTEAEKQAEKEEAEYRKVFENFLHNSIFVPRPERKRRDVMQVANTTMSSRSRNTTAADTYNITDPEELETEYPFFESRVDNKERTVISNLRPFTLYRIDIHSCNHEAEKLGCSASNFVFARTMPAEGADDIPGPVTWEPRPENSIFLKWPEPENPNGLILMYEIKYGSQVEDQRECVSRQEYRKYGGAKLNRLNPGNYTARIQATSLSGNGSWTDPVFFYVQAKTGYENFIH

[4] = target: B1; assay: as above
[5] = target: T2, Recombinant extracellular domain of …; assay: as above; remark: listed apart in the source

| Binder | Kd [1] [µM] | Kd [2] [µM] | koff [2] [s⁻¹] | kon [2] [M⁻¹ s⁻¹] | Kd [3] [µM] | Kd [4] [µM] | Kd [5] [µM] |
| --- | --- | --- | --- | --- | --- | --- | --- |
| B1 | 12.7 |  |  |  |  |  |  |
| B2 |  | 1.55 | 0.169 | 75100 | 6.97 | 11.7 |  |
| B3 |  |  |  |  |  |  | 7.09 |
| B4 |  | 1.21 | 0.362 | 241000 | 15.4 | 14.5 |  |
| B5 |  | 0.512 | 0.142 | 277000 | 3.9 | 11.3 |  |
